The values that follow come from patent publication US20130029913A1, “ARTIFICIAL PLATELETS” (priority 2005, published 2013).

Data set [1] concerns the target T1, Fibrinogen (Homo sapiens, UniProt P02679). Kind of data set: Binding of fibrinogen to peptide-linked microspheres in absence and presence of thrombin (flow cytometry). On the procedure:
Peptide A linked microspheres, and Peptide B linked microspheres were prepared as described in Example 2, and were mixed for 30 minutes with buffer or thrombin as shown in the table below:
The microspheres were then recovered by centrifuging at 1800 g for 10 minutes. The microspheres were resuspended in 100 μl Tris to give a final concentration of 5 mg/ml. 10 μl of Hirudin 100 U/ml was added to inhibit residual thrombin.
180 μl Fibrinogen at a concentration 0.1 mg/ml was added to 20 μl of Peptide A or Peptide B linked microspheres and mixed for 1 hr.
Fibrinogen binding was measured as follows. 5 μl microspheres were added to 50 μl HEPES buffer pH […] FITC labelled antibody to human fibrinogen was added and mixed for 20 minutes. The reaction was stopped with addition of 0.2% Formyl saline. Bound fluorescence was measured using a Beckman Coulter XL MCL Flow Cytometer.
In general terms: A flow cytometer gives signals particle by particle.

The test system of another data set is Thrombocytopenic blood. Kind of data set: Platelet aggregation in thrombocytopenic blood activated by ADP (impedance aggregometer). The format is cell-based. The conditions noted are these: microparticles pre-exposed to thrombin, 6 min. On the procedure: Platelet aggregation in the presence of peptide C modified microparticles was measured using a Multiplatelet impedance aggregometer (Multiplate® Dynabyte medical, Munich).
Peptide C modified microparticles were prepared as described in Example 5 at a stock concentration of 2.5 mg/ml in HBS. The microparticles (0.75 mg) were pre-incubated for 1 h with 1 U/ml human thrombin (Sigma) in HBS (total volume 0.3 ml). To inhibit thrombin activity hirudin (Sigma) was added at a final concentration of 5 U/ml. The reaction was centrifuged at 9300 g for 5 min and the supernatant was discarded. The microparticles were resuspended in HBS to a concentration of 2.5 mg/ml.
Thrombocytopenic blood was prepared from citrated blood as follows:
Platelets were removed by centrifuging whole blood at 163 g for 20 min and discarding the platelet rich upper layer. The upper platelet rich layer was replaced by plasma that was isolated as the supernatant after centrifuging whole blood at 1800 g for 30 min.
To monitor electrical impedance; to each electrode well 0.3 ml of blood was incubated at 37° C. with microparticles (0.15 mg) and saline to give a total volume of 0.6 ml. Aggregation was recorded immediately after the addition of 30 μl of activator adenosine diphosphate solution (0.1 mM). Aggregation was recorded for 6 min; results in FIG. 9 are expressed in arbitrary units of final aggregation.

For data set [2], the target named is T1, Fibrinogen. In words: Clot formation in fibrinogen in response to thrombin (turbidity, PAP-4). The format is biochemical. The arrangement: purchased SNBTS. On the procedure: Clot formation was determined by a […] in turbidity using the Platelet Aggregation Profiler® PAP-4 (BioData Corporation, PA) as follows; Peptide C linked microparticles were prepared as described in Example 5 at a stock concentration of 2.5 mg/ml in Hepes buffered saline (HBS). The baseline optical density was set with fibrinogen (SNBTS) solution at 3 mg/ml in HBS. Fibrinogen solutions (205 μl) were pre-warmed to 37° C. for 1 min before the addition of microparticles (25 μl), with the stir bar rate set at 900 rpm. After two min 20 μL of human thrombin (Sigma) stock solution was added to give a final concentration of 0.032 U/ml.

In data set [3] the test system is plasma. Kind of data set: Clot formation in plasma in response to thrombin (turbidimetric, PAP-4). The format is biochemical. On the procedure:
Microparticle clot formation in plasma was determined turbidimetrically using the Platelet Aggregation Profiler® PAP-4 (BioData Corporation, PA) as described above.
(§1) Peptide C modified microparticles were prepared as described in Example 5 at a stock concentration of 2.5 mg/ml in HBS. The baseline optical density was set with plasma, which had been prepared from citrated blood. Plasma samples (205 μl) were pre-warmed to 37° C. for 1 min before the addition of microparticles (25 μl), with the stir bar rate set at 900 rpm. After two minutes 20 uL of human thrombin (Sigma) stock solution was added to the reaction to give a final thrombin concentration of 0.25 U/ml.

The target in data set [4] is T1, Fibrinogen. Kind of data set: Fibrinogen binding to microparticles after incubation with or without thrombin (flow cytometry). Set-up: purchased Scottish National Blood Transfusion Service (SNBTS). On the procedure:
(§2) Microparticles were mixed with fibrinogen solution after exposure to thrombin to confirm that fibrinogen-binding sequence is exposed by thrombin.
(§3) Microparticles at 0.7, 5 or 10 mg/ml were incubated with 0-0.64 U/mL thrombin at 37° C. after 2 min the thrombin was inhibited by the addition of hirudin (Sigma) at a final concentration of 10 U/mL. Microparticles were centrifuged at 9300 g for 5 min and resuspended in HBS to give 14 mg/mL. The microparticles were diluted 10-fold in 0.1 mg/mL human fibrinogen (Scottish National Blood Transfusion Service: SNBTS) and incubated at room temperature for 1 h. The amount of fibrinogen bound was determined by flow cytometry with a polyclonal antibody rabbit-anti-human fibrinogen-FITC (Dako Cytomation).

Data set [5] relates to plasma. In words: Clot formation in plasma after microparticles pre-incubated with thrombin (turbidimetric, PAP-4). It counts as biochemical. As for the experimental part:
Clot formation as monitored in plasma with peptide C modified microparticles that had been pre-exposed to thrombin in a buffer. Microparticle clot formation in plasma was determined turbidimetrically using the Platelet Aggregation Profiler® PAP-4 (BioData Corporation, PA) as described above.
as §1, with “HBS. Peptide C modified microparticles were pre-incubated with 0.6 U/ml thrombin for 1 h and then hirudin (10 U/ml) was added to inhibit thrombin activity. The reactions were centrifuged at 9300 g for 5 min then resuspended in HBS at 2.5 mg/ml.” for “HBS.”, “of” for “of human”, “thrombin” for “thrombin (Sigma)”

Data set [6] concerns the target T2, human fibrinogen (Scottish National Blood Transfusion Service: SNBTS) (human, UniProt P02671 20-629; P02675 31-491; P02679 27-437, limits assumed).
T2 sequence (looked up) 1: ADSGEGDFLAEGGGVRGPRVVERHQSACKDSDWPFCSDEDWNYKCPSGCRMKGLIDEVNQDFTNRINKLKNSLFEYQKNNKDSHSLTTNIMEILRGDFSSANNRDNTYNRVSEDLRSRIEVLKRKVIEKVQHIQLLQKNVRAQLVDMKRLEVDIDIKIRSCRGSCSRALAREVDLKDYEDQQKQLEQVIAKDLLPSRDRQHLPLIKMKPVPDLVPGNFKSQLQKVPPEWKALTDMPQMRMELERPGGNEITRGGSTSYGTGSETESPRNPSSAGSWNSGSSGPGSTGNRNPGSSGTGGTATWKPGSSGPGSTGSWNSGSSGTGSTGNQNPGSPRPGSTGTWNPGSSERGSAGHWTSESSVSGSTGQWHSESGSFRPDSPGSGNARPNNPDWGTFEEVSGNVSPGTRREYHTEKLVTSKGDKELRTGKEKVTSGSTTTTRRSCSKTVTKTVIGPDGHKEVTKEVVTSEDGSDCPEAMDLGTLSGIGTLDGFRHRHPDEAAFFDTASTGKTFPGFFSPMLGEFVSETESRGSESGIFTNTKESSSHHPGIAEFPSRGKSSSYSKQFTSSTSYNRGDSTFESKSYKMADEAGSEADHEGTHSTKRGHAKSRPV
T2 sequence (looked up) 2: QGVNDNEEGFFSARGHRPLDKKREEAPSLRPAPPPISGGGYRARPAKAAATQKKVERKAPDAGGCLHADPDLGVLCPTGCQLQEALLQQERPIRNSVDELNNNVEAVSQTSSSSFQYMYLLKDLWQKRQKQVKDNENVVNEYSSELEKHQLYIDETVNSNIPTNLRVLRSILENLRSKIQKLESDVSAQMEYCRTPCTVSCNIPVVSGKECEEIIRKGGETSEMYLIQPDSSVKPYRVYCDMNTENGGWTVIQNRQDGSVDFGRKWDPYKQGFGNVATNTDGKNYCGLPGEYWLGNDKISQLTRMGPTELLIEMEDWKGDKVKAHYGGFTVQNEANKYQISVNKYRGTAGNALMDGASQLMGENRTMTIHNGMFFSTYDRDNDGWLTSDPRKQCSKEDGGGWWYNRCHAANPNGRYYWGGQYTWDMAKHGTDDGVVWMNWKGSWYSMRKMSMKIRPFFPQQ
T2 sequence (looked up) 3: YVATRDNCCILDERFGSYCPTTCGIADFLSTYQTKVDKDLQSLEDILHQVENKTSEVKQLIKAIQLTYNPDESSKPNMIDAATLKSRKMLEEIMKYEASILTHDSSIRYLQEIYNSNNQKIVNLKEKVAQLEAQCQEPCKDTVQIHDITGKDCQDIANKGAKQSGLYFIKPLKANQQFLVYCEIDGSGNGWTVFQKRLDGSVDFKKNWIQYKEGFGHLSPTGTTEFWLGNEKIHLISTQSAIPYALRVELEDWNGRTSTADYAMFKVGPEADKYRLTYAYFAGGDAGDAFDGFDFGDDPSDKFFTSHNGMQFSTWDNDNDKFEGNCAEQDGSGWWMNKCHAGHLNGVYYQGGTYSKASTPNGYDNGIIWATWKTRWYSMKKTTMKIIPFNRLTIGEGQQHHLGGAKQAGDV
Kind of data set: flow cytometry with rabbit anti-human fibrinogen-FITC on microparticles. As for the experimental part: as §2, §3

Primed or numbered codes have the meaning given here. No end group written: not given here. MAL″ = maleimide moiety on the C-terminal lysine; MAL = maleimide moiety

T1 sequence (P02671 20-644 isoform P02671-2 partner limits assumed, one chain of several): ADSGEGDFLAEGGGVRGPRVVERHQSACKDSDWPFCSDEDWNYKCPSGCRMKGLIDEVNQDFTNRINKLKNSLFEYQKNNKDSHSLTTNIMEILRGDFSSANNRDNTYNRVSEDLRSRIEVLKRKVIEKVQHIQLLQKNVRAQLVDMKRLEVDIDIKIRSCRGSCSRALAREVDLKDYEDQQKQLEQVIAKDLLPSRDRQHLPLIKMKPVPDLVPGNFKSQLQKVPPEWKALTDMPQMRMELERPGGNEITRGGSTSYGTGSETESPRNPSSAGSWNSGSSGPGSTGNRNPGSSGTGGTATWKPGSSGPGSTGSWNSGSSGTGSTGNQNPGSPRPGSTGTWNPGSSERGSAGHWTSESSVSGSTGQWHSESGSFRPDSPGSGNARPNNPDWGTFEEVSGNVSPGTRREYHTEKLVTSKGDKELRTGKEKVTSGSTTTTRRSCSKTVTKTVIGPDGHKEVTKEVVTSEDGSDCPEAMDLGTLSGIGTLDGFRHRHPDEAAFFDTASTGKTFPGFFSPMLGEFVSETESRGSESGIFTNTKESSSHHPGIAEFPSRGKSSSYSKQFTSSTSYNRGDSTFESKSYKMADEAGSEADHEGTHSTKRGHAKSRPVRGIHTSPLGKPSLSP

On to “H2N-GPRPG^6C (H-GPRPGGGGGGC; also: cross-linked to human albumin microspheres) [Peptide B, reference compound]”, for which the “fibrinogen binding (in words)” value with Fibrinogen [1] (absence of thrombin) and with Fibrinogen [1] (presence of thrombin) was “bound fibrinogen” each time.

Consider “H2N-LVPRGPRPG^5K-MAL (H-LVPRGPRPGGGGGK-{MAL}; also: MAL maleimide linked to human albumin microparticles) [peptide C]”, for which, in the data set with Thrombocytopenic blood, the “electrical impedance (final aggregation) vs TCB without microparticles or blank microparticles” value is on record as “greater electrical impedance”. Also, the “clot formation in fibrinogen solution” value in the data set with Fibrinogen [2] (absence of thrombin, fibrinogen 3 mg/ml) is given as “neither blank nor microparticles modified with peptide C formed a clot”. Further, the “turbidity decrease (clot formation) vs control unmodified microparticles” value with Fibrinogen [2] (thrombin 0.032 U/ml added at 2 min) is recorded as “decreased more rapidly”. For the same molecule, in the data set with plasma [3] (thrombin 0.25 U/ml added at the 2 min time point), the “clot formation in plasma vs unmodified control blank microparticles” value is recorded as “accelerated clot formation”. In addition, the “clot formation in plasma” value in the data set on plasma [3] (without the addition of thrombin) is “did not form a clot”; in the data set on plasma [5] (exposed to thrombin both before (0.6 U/ml, 1 h) and during (0.25 U/ml) incubation with plasma), “clot formation occurs”; in the data set on plasma [5] (without thrombin exposure, over the 20 min period), “did not result in clot formation”. In addition, in the data set with Fibrinogen [4] (increasing thrombin concentration (0-0.64 U/mL), all three microparticle concentrations), the “amount of fibrinogen bound to microparticles” value is on record as “increased”. Further, in the data set with Fibrinogen [4] (without thrombin, microparticles 0.7, 5 or 10 mg/ml), the “fibrinogen binding (in words)” value is given as “do not bind fibrinogen”.

Take “H2N-LVPRGPRPG^6C (H-LVPRGPRPGGGGGGC; also: cross-linked to human albumin microspheres) [Peptide A]”: the “microspheres that bound fibrinogen” value came to 86% with Fibrinogen [1] (first incubated with thrombin (0.16 U/ml, 30 minutes), then mixed with fibrinogen) and 6% with Fibrinogen [1] (not previously incubated with thrombin, fibrinogen 0.1 mg/ml, 1 hr).

B1: Peptide C (H2N-LVPRGPRPG5K-MAL), fibrinogen binding precursor peptide linked to human albumin microparticles, not exposed to thrombin (peptide)
peptide: H-LVPRGPRPGGGGGK(MAL″)
modifications: also: thioether-linked via maleimide to albumin microparticle sulphydryl
notes: Synthetic peptide immobilised on microparticles of human serum albumin; tested as the intact precursor; also called peptide C modified microparticles; microparticles modified with peptide C
Turning to B1, in data set [6], the binding result is given as “no binding (tested: 0.1 mg/mL human fibrinogen)”.
